Assay [1] addresses human mitochondrial cysteine desulfurase NFS1 (human). The assay is described as follows: amino acid analysis + other: SAXS.
In assay [2] the target is [Acp]2:[ISD11]2:[NFS1]2 cysteine desulfurase complex (human | E. coli) (UniProt Q9HD34). The assay is described as follows: SEC + other: amino acid analysis + other: SAXS.
The target of assay [3] is human ISD11-His6 (human) (UniProt Q9HD34). The assay is described as follows: amino acid analysis + other: SAXS.
The target in assay [4] is human ISD11-His6 (human, UniProt Q9HD34 1-91). The assay is described as follows: amino acid analysis + other: SAXS.
Chain of human ISD11-His6 (Q9HD34 whole entry): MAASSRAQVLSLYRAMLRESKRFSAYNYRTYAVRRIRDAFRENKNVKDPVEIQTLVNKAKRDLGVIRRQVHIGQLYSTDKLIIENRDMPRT

Chain of human ISD11-His6 (human) (Q9HD34 whole entry): as above
Chain of [Acp]2:[ISD11]2:[NFS1]2 cysteine desulfurase complex (human | E. coli) (Q9HD34 whole entry, looked up, one chain of several): as the sequence (Q9HD34 whole entry) above
Chain of human mitochondrial cysteine desulfurase NFS1 (human) (Q9Y697 whole entry): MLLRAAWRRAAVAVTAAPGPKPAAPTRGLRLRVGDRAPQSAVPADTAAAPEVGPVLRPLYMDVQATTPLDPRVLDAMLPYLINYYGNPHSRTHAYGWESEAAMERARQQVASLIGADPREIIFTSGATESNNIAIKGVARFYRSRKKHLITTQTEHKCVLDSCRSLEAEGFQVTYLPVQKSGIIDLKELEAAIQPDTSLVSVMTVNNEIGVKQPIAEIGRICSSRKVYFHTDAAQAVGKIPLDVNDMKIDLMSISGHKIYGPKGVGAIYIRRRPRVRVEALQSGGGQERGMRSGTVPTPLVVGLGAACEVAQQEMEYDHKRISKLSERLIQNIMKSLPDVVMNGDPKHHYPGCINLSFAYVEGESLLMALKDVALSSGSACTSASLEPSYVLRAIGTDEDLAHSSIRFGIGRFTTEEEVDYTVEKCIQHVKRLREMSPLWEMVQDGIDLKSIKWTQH

Broadly, the stoichiometry N is the number of molecules, sites or subunits per partner or assembly. Take “holo-form of E. coli acyl carrier protein (Acp) (from UniProt P0A6A8 1-78) (natural protein)”: the stoichiometry N in assay [1] stood at 1. With “human frataxin FXN81-210 (mature form of frataxin) (from UniProt Q16595 81-210) (natural protein)”, in assay [2], the stoichiometry N stood at 2. “human mitochondrial cysteine desulfurase NFS1 (enzyme)”: the stoichiometry N in assay [3] came to 1.

B1: holo-form of E. coli acyl carrier protein (Acp) (natural protein, UniProt P0A6A8 1-78, looked up)
chain: MSTIEERVKKIIGEQLGVKQEEVTNNASFVEDLGADSLDTVELVMALEEEFDTEIPDEEAEKITTVQAAIDYINGHQA
modifications: 4'-phosphopantetheine conjugated to S37
In the case of B1, in assay [4], the “stoichiometry N” value is 1.

For the origin of these results see paper PMC5404276 (ACS Chemical Biology, 2017).
